In publication PMC4368098:

Tests used:
DICER (human) = DICER (human) (UniProt Q9UPY3)
[1] = molecular target: DICER;ARGONAUTE2 (AGO2) (human;human) (UniProt Q9UPY3+Q9UKV8); assay: competition (fluorogenic siRNA processing); conditions: 80 nM BoPsi664, 30 nM each enzyme; Assay Buffer with 1 mM free Mg2+ (full composition not in the material), 37 C; indirect read-out by competitive inhibition of fluorogenic siRNA processing, no …

K d,app from a Morrison-equation fit of enzymatic activity: DICER (25 nM) titrated with AGO2, fluorogenic DICER substrate BoGD664 (250 nM), 37°C (DICER (human)) [nM] | K d,app from a Morrison-equation fit of enzymatic activity: DICER (25 nM) titrated with AGO2, fluorogenic DICER substrate BoPD664 (250 nM), 37°C (DICER (human)) [nM] | molar ratio AGO2:DICER at which enzymatic activity on DICER substrates stops rising (titration of DICER, 25 nM, with AGO2) (molar ratio AGO2:DICER) (DICER (human)) | Substance | IC50 [1] [nM]
2.2 | 0.54 | 1 | ARGONAUTE2 (from UniProt Q9UKV8 1-859) (enzyme) | 
 |  |  | AllStars Negative Control siRNA | 209
